Measurements: publication PMC4479991

Experiments:
[1] = biological target: zif268 (EGR1 DNA-binding domain), cleaved (UniProt P08046); assay: solid-state nanopore; details: EMSA: binding on ice, at least 1 h, native PAGE 8% (oligos) or 3.5% (1 kb), salt up to 1 M KCl; nanopore: 1 M KCl, 30 min incubation at 200:1 protein:DNA; pH …
[2] = biological target: zif268_GST (uncleaved fusion) (UniProt P08046); assay: EMSA; details: EMSA: binding on ice, at least 1 h, native PAGE 8% (oligos) or 3.5% (1 kb), salt up to 1 M KCl; nanopore: 1 M KCl, 30 min incubation at 200:1 protein:DNA; pH …

Substance	binding signal (% ABA (specifically bound) events) [1]	binding signal (% bound at 1:250 DNA:protein) [2]
(-)DNA 960 bp	4.3	–
CGTCAGGGCAAGCCTTATTCACTGAATGAGCAGCTTTGTTACGTTGATTTGGGTAATGAATATCCGGTTCTTGTCAAGATTACTCTTGATGAAGGTCAGCCAGCCTATGCGCCTGGTCTGTACACCGTTCATCTGTCCTCTTTCAAAGTTGGTCAGTTCGGTTCCCTTATGATTGACCGTCTGCGCCTCGTTCCGGCTAAGTAACATGGAGCAGGTCGCGGATTTCGACACAATTTATCAGGCGATGATACAAATCTCCGTTGTACTTTGTTTCGCGCTTGGTATAATCGCTGGGGGTCAAAGATGAGTGTTTTAGTGTATTCTTTCGCCTCTTTCGTTTTAGGTTGGTGCCTTCGTAGTGGCATTACGTATTTTACCCGTTTAATGGAAACTTCCTCATGAAAAAGTCTTTAGTCCTCAAAGCCTCTGTAGCCGTTGCTACCCTCGTTCCGATGCTGTCTTTCGCTGCTGAGGGTGACGATCCCGCAAAAGCGGCCTTTAACTCCCTGCAAGCCTCAGCGACCGAATATATCGGTTATGCGTGGGCGATGGTTGTTGTCATTGTCGGCGCAACTATCGGTATCAAGCTGTTTAAGAAATTCACCTCGAAAGCAAGCTGATAAACCGATACAATTAAAGGCTCCTTTTGGAGCCTTTTTTTTTGGAGATTTTCAACGTGAAAAAATTATTATTCGCAATTCCTTTAGTTGTTCCTTTCTATTCTCACTCCGCTGAAACTGTTGAAAGTTGTTTAGCAAAACCCCATACAGAAAATTCATTTACTAACGTCTGGAAAGACGACAAAACTTTAGATCGTTACGCTAACTATGAGGGTTGTCTGTGGAATGCTACAGGCGTTGTAGTTTGTACTGGTGACGAAACTCAGTGTTACGGTACATGGGTTCCTATTGGGCTTGCTATCCCTGAAAATGAGGGTGGTGGCTCTGAGGGTGGCGGTTCTGAGGGTGGCGGTTCTGAGGGTGGCGGTACTAAACCTCCTGAGTACGGT (double strand) [(+)DNA 1009 bp]	11.5	50
